Results from paper PMC9482650, “Quantitative fragmentomics allow affinity mapping of interactomes” (Nature Communications, 2022).
Values belong to the binder of their own block, whether it stands above or below them.

What was measured:
Assay in all cases: holdup assay
Design in all cases: key: below the threshold = too weak to quantify, mostly under pKd 3.1 to 4
[1] = target: GRID2IP_1, A4D2P6
[2] = target: SCRIB_2, Q14160
[3] = target: NOS1, P29475
[4] = target: T1, GRIP1_4, Q9Y3R0
T1 sequence (Q9Y3R0 467-571, limits assumed, looked up): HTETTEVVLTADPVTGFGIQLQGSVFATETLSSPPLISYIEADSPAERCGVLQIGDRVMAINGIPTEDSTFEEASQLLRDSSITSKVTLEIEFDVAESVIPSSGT

[5] = target: T2, PARD3B_1, Q8TEW8
T2 sequence (Q8TEW8 196-299, limits assumed, looked up): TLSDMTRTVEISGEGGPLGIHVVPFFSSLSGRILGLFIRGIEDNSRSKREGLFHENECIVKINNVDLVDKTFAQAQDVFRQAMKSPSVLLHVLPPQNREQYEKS

[6] = target: MAGI2_3, Q86UL8
[7] = target: DLG4_2, P78352
[8] = target: HTRA1, Q92743
[9] = target: DLG2_2, Q15700
[10] = target: DLG1_1, Q12959
[11] = target: T3, LNX2_2, Q8N448
T3 sequence (Q8N448 334-432, limits assumed, looked up): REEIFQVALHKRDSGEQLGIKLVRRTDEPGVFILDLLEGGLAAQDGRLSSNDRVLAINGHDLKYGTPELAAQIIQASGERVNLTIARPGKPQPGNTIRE

[12] = target: T4, SIPA1L2, Q9P2F8
T4 sequence (Q9P2F8 945-1036, limits assumed, looked up): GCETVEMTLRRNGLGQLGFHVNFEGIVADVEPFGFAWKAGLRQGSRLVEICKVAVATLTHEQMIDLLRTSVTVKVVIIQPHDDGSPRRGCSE

[13] = target: AHNAK1, Q09666
[14] = target: T5, GRIP1_7, Q9Y3R0
T5 sequence (Q9Y3R0 999-1096, limits assumed, looked up): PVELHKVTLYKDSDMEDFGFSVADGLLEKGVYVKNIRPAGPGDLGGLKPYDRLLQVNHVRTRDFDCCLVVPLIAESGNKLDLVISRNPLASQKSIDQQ

[15] = target: LAP2, Q96RT1
[16] = target: T6, TIAM2, Q8IVF5
T6 sequence (Q8IVF5 885-986, limits assumed, looked up): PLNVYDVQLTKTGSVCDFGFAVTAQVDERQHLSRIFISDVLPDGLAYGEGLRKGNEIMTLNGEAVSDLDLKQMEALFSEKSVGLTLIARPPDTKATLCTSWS

[17] = target: NHERF4_2, Q86UT5
[18] = target: SCRIB_3, Q14160
[19] = target: T7, LRRC7, Q96NW7
T7 sequence (Q96NW7 1440-1537, limits assumed, looked up): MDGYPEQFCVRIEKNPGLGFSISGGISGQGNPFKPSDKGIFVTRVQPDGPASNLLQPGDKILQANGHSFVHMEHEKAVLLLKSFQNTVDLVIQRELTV

[20] = target: T8, PCLO, Q9Y6V0
T8 sequence (Q9Y6V0 4491-4600, limits assumed, looked up): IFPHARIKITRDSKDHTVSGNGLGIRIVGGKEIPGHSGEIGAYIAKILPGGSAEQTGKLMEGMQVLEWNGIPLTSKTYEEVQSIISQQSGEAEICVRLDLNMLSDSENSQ

[21] = target: MAGI2_6, Q86UL8
[22] = target: PDLIM1, O00151
[23] = target: T9, MPDZ_10, O75970
T9 sequence (O75970 1624-1722, limits assumed, looked up): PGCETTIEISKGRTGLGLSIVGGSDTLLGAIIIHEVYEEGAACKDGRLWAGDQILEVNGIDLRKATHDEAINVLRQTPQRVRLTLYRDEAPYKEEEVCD

[24] = target: T10, DFNB31_3, Q9P202
T10 sequence (Q9P202 811-907, limits assumed, looked up): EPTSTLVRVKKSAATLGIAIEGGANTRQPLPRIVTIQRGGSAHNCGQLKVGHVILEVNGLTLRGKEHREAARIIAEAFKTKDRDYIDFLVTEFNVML

[25] = target: TJP1_2, Q07157
[26] = target: Inadl_1, Q8NI35
[27] = target: T11, DLG3_1, Q92796
T11 sequence (Q92796 125-227, limits assumed, looked up): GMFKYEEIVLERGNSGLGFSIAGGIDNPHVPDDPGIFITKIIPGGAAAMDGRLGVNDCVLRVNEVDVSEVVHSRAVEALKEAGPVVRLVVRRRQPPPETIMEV

[28] = modified: phospho on T at position -2 from the C-terminal residue
[29] = modified: phospho on T at position -1 from the C-terminal residue
[30] = plain residues with an end cap or a label only (N-terminal biotin on a linker: ado-ado)

GRID2IP_1, A4D2P6, sequence (A4D2P6 1-87): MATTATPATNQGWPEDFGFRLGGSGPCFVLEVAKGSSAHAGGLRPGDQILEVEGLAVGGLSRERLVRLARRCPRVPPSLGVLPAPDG
SCRIB_3, Q14160, sequence (Q14160 999-1103): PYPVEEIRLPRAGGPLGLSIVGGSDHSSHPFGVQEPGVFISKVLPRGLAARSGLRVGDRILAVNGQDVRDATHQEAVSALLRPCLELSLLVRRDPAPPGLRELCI
NOS1, P29475, sequence (P29475 9-101): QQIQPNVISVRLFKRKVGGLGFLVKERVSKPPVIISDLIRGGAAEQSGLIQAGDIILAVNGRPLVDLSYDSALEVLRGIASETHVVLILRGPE
LAP2, Q96RT1, sequence (Q96RT1 other isoform, or with tags, fused parts or gaps): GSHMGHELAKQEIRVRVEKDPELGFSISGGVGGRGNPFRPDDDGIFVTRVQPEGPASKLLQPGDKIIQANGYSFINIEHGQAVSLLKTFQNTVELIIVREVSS
SCRIB_2, Q14160, sequence (Q14160 857-960): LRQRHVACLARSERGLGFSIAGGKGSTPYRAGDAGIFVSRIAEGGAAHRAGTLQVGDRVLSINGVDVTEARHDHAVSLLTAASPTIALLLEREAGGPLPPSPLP
PDLIM1, O00151, sequence (O00151 1-87): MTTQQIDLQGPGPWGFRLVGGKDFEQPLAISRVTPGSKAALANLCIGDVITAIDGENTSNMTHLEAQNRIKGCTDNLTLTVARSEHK
DLG2_2, Q15700, sequence (Q15700 189-283): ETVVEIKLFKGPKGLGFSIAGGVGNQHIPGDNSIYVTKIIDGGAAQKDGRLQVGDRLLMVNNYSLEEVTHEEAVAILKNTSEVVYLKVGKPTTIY
TJP1_2, Q07157, sequence (Q07157 181-274): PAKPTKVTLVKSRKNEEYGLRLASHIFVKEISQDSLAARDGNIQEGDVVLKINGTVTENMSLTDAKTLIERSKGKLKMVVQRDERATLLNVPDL
DLG4_2, P78352, sequence (P78352 155-259): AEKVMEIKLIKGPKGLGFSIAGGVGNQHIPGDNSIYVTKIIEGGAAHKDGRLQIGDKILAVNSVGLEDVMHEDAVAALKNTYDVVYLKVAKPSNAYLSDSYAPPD
MAGI2_6, Q86UL8, sequence (Q86UL8 1141-1229): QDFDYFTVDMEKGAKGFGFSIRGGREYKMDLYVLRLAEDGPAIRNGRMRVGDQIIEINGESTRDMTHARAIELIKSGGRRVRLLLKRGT
NHERF4_2, Q86UT5, sequence (Q86UT5 220-308): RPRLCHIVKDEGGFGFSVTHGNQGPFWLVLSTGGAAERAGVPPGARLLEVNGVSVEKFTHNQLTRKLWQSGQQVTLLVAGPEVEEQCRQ
MAGI2_3, Q86UL8, sequence (Q86UL8 600-682): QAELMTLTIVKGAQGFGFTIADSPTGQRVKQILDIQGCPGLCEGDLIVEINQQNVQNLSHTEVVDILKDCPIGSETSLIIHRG
HTRA1, Q92743, sequence (Q92743 360-477): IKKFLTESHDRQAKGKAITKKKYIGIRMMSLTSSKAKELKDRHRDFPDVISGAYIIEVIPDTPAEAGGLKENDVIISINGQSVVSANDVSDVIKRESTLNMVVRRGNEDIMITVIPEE
AHNAK1, Q09666, sequence (Q09666 4-100): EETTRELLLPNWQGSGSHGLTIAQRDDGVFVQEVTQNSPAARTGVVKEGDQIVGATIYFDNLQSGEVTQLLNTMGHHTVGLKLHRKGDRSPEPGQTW
Inadl_1, Q8NI35, sequence (Q8NI35 113-229): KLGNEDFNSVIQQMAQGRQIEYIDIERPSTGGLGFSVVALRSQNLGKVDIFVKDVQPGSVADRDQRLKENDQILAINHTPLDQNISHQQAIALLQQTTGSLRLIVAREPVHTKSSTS

pKd [1, 28]: below the threshold | pKd [2, 28]: below the threshold | pKd [3, 28]: below the threshold | pKd [4, 28]: below the threshold | pKd [5, 28]: 3.9 | pKd [6, 28]: below the threshold | pKd [7, 28]: below the threshold | pKd [8, 28]: 3.65 | pKd [9, 28]: below the threshold | pKd [10, 28]: 3.58 | pKd [11, 28]: below the threshold | pKd [12, 28]: below the threshold | pKd [13, 28]: below the threshold | pKd [14, 28]: 3.63 | pKd [15, 28]: below the threshold | pKd [16, 28]: below the threshold | pKd [17, 28]: below the threshold | pKd [18, 28]: below the threshold | pKd [19, 28]: below the threshold | pKd [20, 28]: below the threshold | pKd [21, 28]: below the threshold | pKd [22, 28]: below the threshold | pKd [23, 28]: below the threshold | pKd [24, 28]: below the threshold | pKd [25, 28]: below the threshold | pKd [26, 28]: below the threshold | pKd [27, 28]: below the threshold
B1: RPS6KA1_-2P, Q15418 (peptide)
chain: RRVRKLPSTTL

pKd [1, 29]: below the threshold | pKd [2, 29]: 3.61 | pKd [3, 29]: below the threshold | pKd [4, 29]: 3.36 | pKd [5, 29]: 4.04 | pKd [6, 29]: below the threshold | pKd [7, 29]: 3.85 | pKd [8, 29]: 4.7 | pKd [9, 29]: 3.83 | pKd [10, 29]: 3.82 | pKd [11, 29]: below the threshold | pKd [12, 29]: below the threshold | pKd [13, 29]: 3.52 | pKd [14, 29]: 3.48 | pKd [15, 29]: below the threshold | pKd [16, 29]: 3.41 | pKd [17, 29]: below the threshold | pKd [18, 29]: 4.61 | pKd [19, 29]: 3.47 | pKd [20, 29]: below the threshold | pKd [21, 29]: 3.83 | pKd [22, 29]: 4 | pKd [23, 29]: below the threshold | pKd [24, 29]: 3.78 | pKd [25, 29]: below the threshold | pKd [26, 29]: 3.35 | pKd [27, 29]: 3.57
B2: RPS6KA1_-1P, Q15418 (peptide)
chain: RRVRKLPSTTL

pKd [1, 30]: below the threshold | pKd [2, 30]: below the threshold | pKd [3, 30]: below the threshold | pKd [4, 30]: below the threshold | pKd [5, 30]: below the threshold | pKd [6, 30]: below the threshold | pKd [7, 30]: below the threshold | pKd [8, 30]: below the threshold | pKd [9, 30]: below the threshold | pKd [10, 30]: below the threshold | pKd [11, 30]: below the threshold | pKd [12, 30]: below the threshold | pKd [13, 30]: below the threshold | pKd [14, 30]: below the threshold | pKd [15, 30]: below the threshold | pKd [16, 30]: below the threshold | pKd [17, 30]: below the threshold | pKd [18, 30]: 4.39 | pKd [19, 30]: below the threshold | pKd [20, 30]: below the threshold | pKd [21, 30]: 3.96 | pKd [22, 30]: 3.5 | pKd [23, 30]: below the threshold | pKd [24, 30]: below the threshold | pKd [25, 30]: below the threshold | pKd [26, 30]: below the threshold | pKd [27, 30]: below the threshold
B3: SH2D3C, Q8N5H7 (peptide)
chain: LEPAVRSSEL
